Laboratory results from patent US20090186811A1, “Y2 Selective Receptor Agonists for Therapeutic Interventions” (priority 2004, published 2009).
Non-standard residues stand in square brackets, D forms with d. Primed or numbered codes have the meaning given here. No end group written: not given here. Aoc′ = not defined here

Experiments:
[1] = molecular target: T1, human Y1 receptor (human), P25929; assay: cell-based or functional assay
T1 chain: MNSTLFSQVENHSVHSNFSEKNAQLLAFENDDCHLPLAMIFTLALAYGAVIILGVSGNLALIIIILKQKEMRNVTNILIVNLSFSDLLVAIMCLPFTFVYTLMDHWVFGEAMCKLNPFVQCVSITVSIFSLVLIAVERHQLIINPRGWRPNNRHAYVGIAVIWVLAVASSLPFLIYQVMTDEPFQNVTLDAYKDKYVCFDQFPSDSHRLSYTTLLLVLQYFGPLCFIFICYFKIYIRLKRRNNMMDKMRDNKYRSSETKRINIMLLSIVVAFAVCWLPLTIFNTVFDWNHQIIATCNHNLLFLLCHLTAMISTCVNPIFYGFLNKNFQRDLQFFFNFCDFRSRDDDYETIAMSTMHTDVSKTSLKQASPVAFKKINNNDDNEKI

[2] = molecular target: T2, human Y2 receptor (human), P49146; assay: cell-based or functional assay
T2 chain: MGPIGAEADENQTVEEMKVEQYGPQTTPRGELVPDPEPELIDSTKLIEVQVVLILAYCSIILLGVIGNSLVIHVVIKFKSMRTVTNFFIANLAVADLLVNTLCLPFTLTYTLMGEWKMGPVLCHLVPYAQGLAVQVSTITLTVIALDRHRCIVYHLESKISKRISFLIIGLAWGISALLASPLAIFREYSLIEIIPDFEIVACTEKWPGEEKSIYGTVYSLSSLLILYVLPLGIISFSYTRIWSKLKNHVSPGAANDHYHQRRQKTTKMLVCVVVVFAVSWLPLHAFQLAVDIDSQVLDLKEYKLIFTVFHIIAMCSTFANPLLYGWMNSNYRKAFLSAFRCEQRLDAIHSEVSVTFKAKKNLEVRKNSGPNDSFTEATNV

[3] = molecular target: human Y4 receptor (human), P50391; assay: cell-based or functional assay
Chain of human Y4 receptor (human), P50391 (P50391 whole entry): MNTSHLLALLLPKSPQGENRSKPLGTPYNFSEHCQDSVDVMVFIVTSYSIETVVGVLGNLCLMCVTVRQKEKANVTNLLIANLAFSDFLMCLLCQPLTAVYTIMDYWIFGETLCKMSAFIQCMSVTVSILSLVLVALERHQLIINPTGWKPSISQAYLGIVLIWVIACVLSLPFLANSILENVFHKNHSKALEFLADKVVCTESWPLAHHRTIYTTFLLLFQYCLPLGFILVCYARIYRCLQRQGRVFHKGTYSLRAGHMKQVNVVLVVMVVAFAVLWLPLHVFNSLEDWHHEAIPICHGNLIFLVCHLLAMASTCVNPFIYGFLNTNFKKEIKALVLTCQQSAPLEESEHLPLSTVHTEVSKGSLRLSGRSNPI

[4] = molecular target: T3, human Y5 receptor (human), Q15761; assay: cell-based or functional assay
T3 chain: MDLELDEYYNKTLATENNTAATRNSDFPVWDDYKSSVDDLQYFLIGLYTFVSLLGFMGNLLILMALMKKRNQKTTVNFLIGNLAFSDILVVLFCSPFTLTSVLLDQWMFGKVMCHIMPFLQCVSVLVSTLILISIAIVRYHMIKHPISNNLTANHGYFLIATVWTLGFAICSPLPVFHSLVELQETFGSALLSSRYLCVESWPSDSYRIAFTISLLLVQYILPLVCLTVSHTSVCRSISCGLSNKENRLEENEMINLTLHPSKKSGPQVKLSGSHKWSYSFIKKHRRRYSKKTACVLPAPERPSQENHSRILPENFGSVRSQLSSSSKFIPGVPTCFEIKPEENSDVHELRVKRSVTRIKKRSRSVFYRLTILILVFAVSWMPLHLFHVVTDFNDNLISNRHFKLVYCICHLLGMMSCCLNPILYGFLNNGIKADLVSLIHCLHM

[5] = molecular target: human Y4 receptor (human), P50391; assay: competition binding, 125I-PP displaced, COS-7 cells with human Y4
[6] = molecular target: T2, human Y2 receptor (human), P49146; assay: competition binding, 125I-PYY displaced, COS-7 cells with human Y2

- EC50 (inositol phosphate turnover) [1]: > 1000 nM
- EC50 (inositol phosphate turnover) [2]: 3.7 nM
- EC50 (inositol phosphate turnover) [3]: > 1000 nM
- EC50 (inositol phosphate turnover) [4]: > 1000 nM
- IC50 [5]: 267 nM
- IC50 [6]: 0.87 nM
B1: [Cys2, Aoc5-24, D-Cys27]PYY (peptide)
chain: YCIK[Aoc′]RH[dC]LNLVTRQRY
modifications: cysteine pairing not given here; reading uncertain
